Measured values published in paper PMC3998870 (Nature, 2014).

T1: VirB4/TrwK with a C-terminal StrepII tag (Escherichia coli plasmid R388, UniProt O50330 1-823)
T1 sequence (looked up): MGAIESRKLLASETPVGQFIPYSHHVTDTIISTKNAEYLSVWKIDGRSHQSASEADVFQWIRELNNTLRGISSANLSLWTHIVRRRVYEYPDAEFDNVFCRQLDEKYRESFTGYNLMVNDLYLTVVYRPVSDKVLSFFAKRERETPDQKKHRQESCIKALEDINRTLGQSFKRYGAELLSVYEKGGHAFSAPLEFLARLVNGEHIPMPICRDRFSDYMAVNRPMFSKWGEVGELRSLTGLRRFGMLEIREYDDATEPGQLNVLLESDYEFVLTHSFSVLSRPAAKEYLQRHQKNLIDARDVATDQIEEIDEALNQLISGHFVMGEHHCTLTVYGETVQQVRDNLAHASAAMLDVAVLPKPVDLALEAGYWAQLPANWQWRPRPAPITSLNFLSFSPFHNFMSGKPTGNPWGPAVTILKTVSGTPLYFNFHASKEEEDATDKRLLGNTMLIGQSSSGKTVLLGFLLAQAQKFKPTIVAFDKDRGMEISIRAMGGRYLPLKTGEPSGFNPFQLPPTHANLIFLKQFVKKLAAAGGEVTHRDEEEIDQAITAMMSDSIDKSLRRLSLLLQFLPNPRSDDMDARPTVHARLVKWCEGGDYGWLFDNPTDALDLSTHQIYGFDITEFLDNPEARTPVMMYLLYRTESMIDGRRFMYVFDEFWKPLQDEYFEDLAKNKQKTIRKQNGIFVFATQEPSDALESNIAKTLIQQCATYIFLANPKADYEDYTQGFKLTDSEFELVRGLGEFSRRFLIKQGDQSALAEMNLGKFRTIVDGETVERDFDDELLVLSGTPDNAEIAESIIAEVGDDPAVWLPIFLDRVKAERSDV

B1: VirB3/TrwM (natural protein, Escherichia coli plasmid R388, UniProt O50329 1-104, looked up)
chain: MKPPQQQHEAFPLFKGATRLPTILGEPMIPLMAMVMGVAVIALTVSIWWWALVPPLWFIMAQITKNDDKAFRIWWLWIDTKFRNRNKGFWGASSYSPANYRKRR
B2: VirB8/TrwG (natural protein, Escherichia coli plasmid R388, UniProt O50335 1-231, looked up)
chain: MSKKQPKPVKAEQLKSYYEESRGLERDLIGEFVKSRKTAWRVATASGLFGLLGMVCGIVGFSQPAPAPLVLRVDNATGAVDVVTTLREHESSYGEVVDTYWLNQYVLNREAYDYNTIQMNYDTTALLSAPAVQQDYYKLFDGSNARDRVLGNKARITVRVRSIQPNGRGQATVRFTTQQHNSNGTVERPQHQIATIGYTYIGAPMRSSDRLLNPLGFQVTSYRADPEILNN
B3: VirB5/TrwJ (natural protein, Escherichia coli plasmid R388, UniProt O50331 23-226, looked up)
chain: QGIPVFDGTRALDFVQQFARMKEQLDTAKDQLAEAQRMYEAVTGGRGLGDLMRNAQLREYLPDDLRTVYDSANGGGYSGISGSINDILRDERLNGSVADMRRSIEERSRTARTTDKAVGCGPTKGHSNASRRLKDEISRTQDQKAIEELQARIAGEQAAIQNETTKLQMIAQLRQAEQALISEQRRERNMPILSSGNQGMPTIQ
B4: VirB4/TrwK (untagged, in the T4SS3-10 complex) (enzyme, Escherichia coli plasmid R388, UniProt O50330 1-823, looked up)
chain: T1 sequence (looked up)
B5: VirB10/TrwE with a C-terminal StrepII tag (natural protein, Escherichia coli plasmid R388, UniProt O50337 1-395, looked up)
chain: MFGRKKGDVIDAGAELERAEQERIEGEYGASELASERRPHTPGARTLLMVLLCVIAVVLVTLSYKAYKVRGVVEDDDAQPQQVVRQVIPGYTPRPIRPEPENVPEPPQPTTSVPAIQPAPVTQPVRPQPTGPREKTPYELARERMLRSGLTAGSGGGEDLPRPQGGDVPAGGLMGGGGGGGELAEKLQPMRLSGSSAGRLGNRDMLITQGTQLDCVLETRLVTTQPGMTTCHLTRDVYSTSGRVVLLDRGSKVVGFYQGGLRQGQARIFVQWSRIETPSGVVINLDSPGTGPLGEAGLGGWIDRHFWERFGGAIMISLIGDLGDWASRQGSRQGNNSIQFSNTANGVESAAAEALRNSINIPPTLYKNQGERVNILVARDLDFSDVYSLESIPTK

Columns and labels:
[1] = biological target: VirB4/TrwK (untagged, in the T4SS3-10 complex) (Escherichia coli plasmid R388) (UniProt O50330); assay: negative stain EM reconstruction
[2] = biological target: VirB10/TrwE with a C-terminal StrepII tag (Escherichia coli plasmid R388) (UniProt O50337); assay: tandem affinity purification with 125I labelling of tyrosines and SDS-PAGE
[3] = biological target: T1, VirB4/TrwK with a C-terminal StrepII tag; assay: SEC
[4] = biological target: B5; assay: tandem affinity purification with 125I labelling of tyrosines and SDS-PAGE
co-purification = biological target: the molecule itself; assay: co-purification

## VirB4/TrwK (untagged, in the T4SS3-10 complex) (from UniProt O50330 1-823) (enzyme)
[1]
  stoichiometry N: 6

## VirB6/TrwI with an N-terminal His6 tag (natural protein)
[2]
  copies in the complex, calibrated on 14 copies of VirB10/TrwE: 23.8 copies

## B1
[3]
  stoichiometry N: 1

## B2
[4]
  copies in the complex, calibrated on 14 copies of VirB10/TrwE: 12.6 copies

## B3
[4]
  copies in the complex, calibrated on 14 copies of VirB10/TrwE: 11.9 copies

## B4
[4]
  copies in the complex, calibrated on 14 copies of VirB10/TrwE: 11.5 copies

## B5
co-purification
  stoichiometry N: 14
